Patent publication US20250269051A1 (ALMAC DISCOVERY, published 2025)

Assays:
human ROR1-Fc (CHO) = biological target: T1, human ROR1-Fc (CHO) (human); test: ELISA on coated human ROR1-hFc, one concentration (5 µg/mL)
T1 construct: ROR1 extracellular domain fused to human Fc; also called huROR1-Fc; hROR1-Fc
Method: (§1) In brief, ELISA method as follows. Wells coated with 100ng of ROR1-hFc antigen and incubated, covered, at room temperature for 2 hr. Plates washed 3×400ul per well with PBST (PBS+0.05% Tween 20 (v/v)), then blocked with 4% skimmed milk powder (w/v) in PBST for 1 hour at 37° C. Plates washed as before plus additional wash in PBS alone. HisMyc-tagged binding proteins were diluted in 4% milk PBST and incubated overnight at 4° C. Plates washed 3× with PBST, 3× PBS and binding detected using appropriate secondary detection antibody in 4% milk PBST, room temperature 1 hour. Secondary antibodies used include: [0658] Anti-c-Myc, HRP (Invitrogen #R951-25) [0659] Mouse anti-polyHis, HRP (Sigma #A7058)

human ROR2-Fc (CHO) = biological target: T2, human ROR2-Fc (CHO) (human); test: ELISA; hROR2-hFc coated
T2 construct: also called hROR2-hFc
T2 sequence (chain, as listed by the source limits assumed): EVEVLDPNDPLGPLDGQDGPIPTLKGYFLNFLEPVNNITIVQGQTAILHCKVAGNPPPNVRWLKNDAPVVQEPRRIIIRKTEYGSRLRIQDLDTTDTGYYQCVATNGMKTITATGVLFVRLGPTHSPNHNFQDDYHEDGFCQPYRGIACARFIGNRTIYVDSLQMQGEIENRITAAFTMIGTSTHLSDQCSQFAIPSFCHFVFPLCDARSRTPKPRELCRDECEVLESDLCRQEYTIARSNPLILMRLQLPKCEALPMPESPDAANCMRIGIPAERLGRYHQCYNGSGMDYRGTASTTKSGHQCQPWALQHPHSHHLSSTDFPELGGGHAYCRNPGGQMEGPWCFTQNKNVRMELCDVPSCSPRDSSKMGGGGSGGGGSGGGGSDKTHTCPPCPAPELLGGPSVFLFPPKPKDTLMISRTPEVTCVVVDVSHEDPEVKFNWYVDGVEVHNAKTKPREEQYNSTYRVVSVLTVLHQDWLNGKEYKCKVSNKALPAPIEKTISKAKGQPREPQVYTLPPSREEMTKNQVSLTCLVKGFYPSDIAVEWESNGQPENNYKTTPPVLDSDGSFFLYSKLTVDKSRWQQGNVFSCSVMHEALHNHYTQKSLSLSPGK
Method: as §1
The same ELISA procedure was employed as described above but with either mROR1-hFc or hROR2-hFc coated on the plates.

T1 sequence (chain, as listed by the source limits assumed): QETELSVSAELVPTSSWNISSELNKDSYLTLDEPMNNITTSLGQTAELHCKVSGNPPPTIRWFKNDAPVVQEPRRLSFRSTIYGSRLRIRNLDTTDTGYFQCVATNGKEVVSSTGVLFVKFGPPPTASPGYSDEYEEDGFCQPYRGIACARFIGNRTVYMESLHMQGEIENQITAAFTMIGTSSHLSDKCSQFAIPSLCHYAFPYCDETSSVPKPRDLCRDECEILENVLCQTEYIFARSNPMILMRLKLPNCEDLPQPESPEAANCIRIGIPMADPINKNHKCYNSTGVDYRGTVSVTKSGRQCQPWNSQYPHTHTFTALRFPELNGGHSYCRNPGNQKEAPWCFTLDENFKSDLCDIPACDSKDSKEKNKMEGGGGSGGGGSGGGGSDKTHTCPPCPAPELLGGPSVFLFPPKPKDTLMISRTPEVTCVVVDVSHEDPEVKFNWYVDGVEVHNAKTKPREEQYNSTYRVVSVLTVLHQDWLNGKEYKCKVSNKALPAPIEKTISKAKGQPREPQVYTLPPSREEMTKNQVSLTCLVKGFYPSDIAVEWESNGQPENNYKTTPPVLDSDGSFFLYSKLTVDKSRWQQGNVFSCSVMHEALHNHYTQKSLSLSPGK

B1: AA5.S (VNAR)
VNAR: TRVDQSPSSLSASVGDRVTITCVLTGTGYGLYSSTYWYRKNPGSSDEERIIIGGRYSESVNKGSKSFTLTISSLQPEDSATYYCRAREARHPWLRQWYDGAGTKVEIKQ
notes: P3A1 G1 loop variant from the selection on streptavidin beads; also called P3A1 G1 loop variant AA5.S
Human ROR1-Fc (CHO)
  binding result: binds

B2: NAC6.S (VNAR)
VNAR: TRVDQSPSSLSASVGDRVTITCVLTDTRYALYSSTYWYRKNPGSTDEERISIGGRYSESVNKGSKSFTLTISSLQPEDSATYYCRAREARHPWLRQWYDGAGTKVEIKQ
notes: VNAR, P3A1 G1 loop variant; entry includes the HisMyc tag; also called P3A1 G1 NAC6.S; P3A1G1 NAC6.S
Human ROR2-Fc (CHO)
  binding result: no binding

B3: AE3.S (VNAR)
VNAR: TRVDQSPSSLSASVGDRVTITCVLTGTRYGLYSSTYWYRKNPGSSDEERISISGRYSESVNKGTKSFTLTISSLQPEDSATYYCRAREARHPWLRQWYDGAGTKVEIKQ
notes: VNAR, P3A1 G1 loop variant; entry includes the HisMyc tag; also called P3A1 G1 AE3.S; P3A1G1 AE3.S
Human ROR2-Fc (CHO)
  binding result: no binding

B4: AC5.S (VNAR)
VNAR: TRVDQSPSSLSASVGDRVTITCVLTDTSYGLYSSTYWYRKNPGSSNKERMSISGRYSESVNKGSKSFTLTISSLQPEDSATYYCRAREARHPWLRQWYDGAGTKVEIKQ
notes: P3A1 G1 loop variant from the immunotube selection; also called P3A1 G1 loop variant AC5.S
Human ROR1-Fc (CHO)
  binding result: binds
